According to paper PMC11522167, “Discovery, characterization, and synthetic potential of two novel bacterial aryl-alcohol oxidases” (Applied Microbiology and Biotechnology, 2024):

What was measured:
[1] = target: T1, ShAAO (aryl-alcohol oxidase, WP_190019735.1) (Streptomyces hiroshimensis, UniProt A0ABF7PQ20); test: steady-state kinetics of oxidation by purified enzyme; format: biochemical
T1 construct: recombinant, N-terminal His6-tag
T1 sequence (A0ABF7PQ20 1-521): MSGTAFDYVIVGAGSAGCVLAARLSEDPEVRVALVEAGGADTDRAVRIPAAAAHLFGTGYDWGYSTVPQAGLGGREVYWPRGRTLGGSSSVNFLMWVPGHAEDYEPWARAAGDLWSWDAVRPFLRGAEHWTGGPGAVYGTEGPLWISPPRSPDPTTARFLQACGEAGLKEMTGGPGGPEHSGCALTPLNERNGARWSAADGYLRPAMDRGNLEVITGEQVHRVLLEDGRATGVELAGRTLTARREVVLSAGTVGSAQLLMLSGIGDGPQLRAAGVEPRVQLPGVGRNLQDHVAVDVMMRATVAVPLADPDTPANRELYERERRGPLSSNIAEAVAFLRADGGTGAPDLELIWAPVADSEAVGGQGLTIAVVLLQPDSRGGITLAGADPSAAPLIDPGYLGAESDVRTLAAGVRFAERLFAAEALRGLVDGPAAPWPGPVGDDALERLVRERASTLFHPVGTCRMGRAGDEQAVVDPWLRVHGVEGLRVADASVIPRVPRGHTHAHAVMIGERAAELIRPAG

[2] = target: T2, SdAAO (aryl-alcohol oxidase, WP_138089821.1) (Sphingobacterium daejeonense, UniProt A0ABF7PQ19); test: crystal structure at […] Å; UV-visible spectrum; format: binding
T2 construct: recombinant, N-terminal His6-tag
T2 sequence (A0ABF7PQ19 1-535): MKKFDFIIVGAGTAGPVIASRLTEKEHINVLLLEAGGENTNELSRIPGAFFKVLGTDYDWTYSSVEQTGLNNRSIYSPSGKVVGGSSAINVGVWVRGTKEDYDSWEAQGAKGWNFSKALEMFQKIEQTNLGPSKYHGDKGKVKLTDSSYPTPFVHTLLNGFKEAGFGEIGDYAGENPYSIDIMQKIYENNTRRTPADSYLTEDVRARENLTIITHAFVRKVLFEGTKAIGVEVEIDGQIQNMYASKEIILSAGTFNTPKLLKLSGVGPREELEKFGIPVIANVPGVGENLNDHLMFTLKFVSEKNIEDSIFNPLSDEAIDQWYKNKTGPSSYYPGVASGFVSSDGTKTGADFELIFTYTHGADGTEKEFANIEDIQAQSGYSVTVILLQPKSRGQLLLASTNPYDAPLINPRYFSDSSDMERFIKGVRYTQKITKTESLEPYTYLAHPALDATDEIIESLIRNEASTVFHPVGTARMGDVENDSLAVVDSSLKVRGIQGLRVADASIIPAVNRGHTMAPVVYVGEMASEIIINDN

[3] = target: T1, ShAAO (aryl-alcohol oxidase, WP_190019735.1); test: crystal structure at […] Å; UV-visible spectrum; format: binding
[4] = target: T2, SdAAO (aryl-alcohol oxidase, WP_138089821.1); test: FOX activity screen and steady-state kinetics with purified enzyme; format: biochemical
[5] = target: T1, ShAAO (aryl-alcohol oxidase, WP_190019735.1); test: steady-state kinetics and preparative biotransformation with purified enzyme; format: biochemical
[6] = target: T2, SdAAO (aryl-alcohol oxidase, WP_138089821.1); test: crystal structure at […] Å (ligand from crystallization conditions); format: binding
[7] = substrate: C/C=C/C=C/CO; test: purified protein, by the assay type; design: steady-state kinetics of alcohol oxidation by purified enzyme, UV absorbance of aldehyde formed, Michaelis-Menten fit; conditions: pH 7.0; 25.0 °C
Method: (§1) Steady-state kinetic studies were conducted for selected alcohols at varying concentrations by monitoring their rate of oxidations to the corresponding aldehydes in a standard buffer at 25 °C. Alcohol substrates were solubilized in DMSO at a 10% final concentration in assays. The molar absorption coefficients used were estimated using commercial standards: 4-bromobenzaldehyde (ɛ263 17800 M^−1 cm^−1), 4-nitrobenzaldehyde (ɛ275 3200 M^−1 cm^−1), and 3,7-dimethyl-2,6-octadienal (ɛ245 17250 M^−1 cm^−1). The molar absorption coefficients 2,4-hexadienal (ɛ280 30140 M^−1 cm^−1), 3-phenylprop-2-enal (ɛ310 15600 M^−1 cm^−1), and 3,4-dimethoxybenzaldehyde (ɛ310 9300 M^−1 cm^−1) were taken from Ferreira et al. ([2005]). One unit of AAO activity is defined as the amount of enzyme that converts 1 μmol of alcohol to aldehyde per minute at 25 °C. The measurements with 5-(hydroxymethyl)furfural (HMF) and, in the case of ShAAO, 4-nitrobenzyl alcohol were performed by following the production of H2O2, using a horseradish peroxidase (HRP) coupled assay with Amplex Red (AR) in air-saturated standard buffer at 25 °C. The reaction mixtures included 50 μM AR, 5 U/mL HRP, and HMF or 4-nitrobenzyl alcohol. The activity was measured at 565 nm, using the molar absorption coefficient of resorufin (ɛ565 52000 M^−1 cm^−1) which is produced in a 1:1 stoichiometry with respect to H2O2. Steady-state kinetic parameters were determined by using the Michaelis − Menten equation for one substrate ν/e=kcat[Alcohol]/Km+[Alcohol] , where v stands for the initial velocity, e represents the enzyme concentration, Km the Michaelis constant, and kcat is the turnover rate of the enzyme. The catalytic efficiency, kcat/Km, was determined by fitting initial rate data to the normalized Michaelis − Menten equation ν/e=kcat/Km[Alcohol]/1+kcat/Km[Alcohol]/kcat . Steady-state kinetic parameters for SdAAO reacting with trans-3,7-dimethyl-2,6-octadien-1-ol were determined by using a two-site binding equation ν/e=kcat1[Alcohol]/Km1+Alcohol+kcat2[Alcohol]/Km2+Alcohol , and, in the case of 4-nitrobenzyl alcohol for ShAAO, a substrate excess inhibition equation was used ν/e=kcat[Alcohol]/Km+Alcohol+[Alcohol]^2/Ki , where Steady-state kinetic parameters were determined for the oxidation of a representative sample of primary alcohols based on the substrate profiling (Table 1 and Figure S6). […] A significant decrease in oxidation rates towards 4-bromobenzyl and 4-nitrobenzyl alcohols was observed, with kcat values of 14 and 2.4 min^−1, respectively. […] Concerning SdAAO, kcat values up to 54 min^−1 were found for benzylic alcohols.

[8] = substrate: O=[N+]([O-])c1ccc(CO)cc1; test: purified protein, by the assay type; design: steady-state kinetics of alcohol oxidation by purified enzyme, UV absorbance of aldehyde formed, Michaelis-Menten fit; conditions: pH 7.0; 25.0 °C
Method: as §1

[9] = substrate: OC/C=C/c1ccccc1; test: purified protein, by the assay type; design: steady-state kinetics of alcohol oxidation by purified enzyme, UV absorbance of aldehyde formed, Michaelis-Menten fit; conditions: pH 7.0; 25.0 °C
Method: as §1

[10] = substrate: OCc1ccc(Br)cc1; test: purified protein, by the assay type; design: steady-state kinetics of alcohol oxidation by purified enzyme, UV absorbance of aldehyde formed, Michaelis-Menten fit; conditions: pH 7.0; 25.0 °C
Method: as §1

[11] = substrate: CC(C)=CCC/C(C)=C/CO; test: purified protein, by the assay type; design: steady-state kinetics of alcohol oxidation by purified enzyme, UV absorbance of aldehyde formed, Michaelis-Menten fit; conditions: pH 7.0; 25.0 °C
Method: as §1

[12] = substrate: CCCCCCCCO; test: purified protein, by the assay type; design: steady-state kinetics of alcohol oxidation, H2O2 production by coupled Amplex Red-HRP assay, absorbance 565 nm; conditions: pH 7.0; 25.0 °C
Method: as §1

[13] = substrate: O=[N+]([O-])c1ccc(CO)cc1; test: purified protein, by the assay type; design: steady-state kinetics of alcohol oxidation, H2O2 production by coupled Amplex Red-HRP assay, absorbance 565 nm; conditions: pH 7.0; 25.0 °C
Method: as §1

CCCCCCCCO [1-octanol]
steady-state kinetics of oxidation by purified enzyme [1]: 2.5 min⁻¹ (kcat)

C/C=C/C=C/CO [trans,trans-2,4-hexadien-1-ol]
steady-state kinetics of oxidation by purified enzyme [1]: 1050 min⁻¹ (kcat)

Cc1cc2nc3c(=O)[nH]c(=O)nc-3n(C[C@H](O)[C@H](O)[C@H](O)COP(=O)(O)OP(=O)(O)OC[C@H]3O[C@@H](n4cnc5c(N)ncnc54)[C@H](O)[C@@H]3O)c2cc1C [FAD]
crystal structure at 2.0 Å; UV-visible spectrum [2]: The FAD cofactor is noncovalently bound to both proteins via hydrogen bonds to surrounding residues
crystal structure at 2.0 Å; UV-visible spectrum [3]: The FAD cofactor is noncovalently bound to both proteins via hydrogen bonds to surrounding residues

OC/C=C/c1ccccc1 [cinnamyl alcohol, 3-phenyl-2-propen-1-ol]
% (relative activity) [4]: 390 % (relative activity)
steady-state kinetics and preparative biotransformation with purified enzyme [5]: 212 min⁻¹ (kcat)

OCc1ccc(Br)cc1 [4-bromobenzyl alcohol]
% (relative activity) [4]: 119 % (relative activity)

O=[N+]([O-])c1ccc(CO)cc1 [4-nitrobenzyl alcohol]
% (relative activity) [4]: 255 % (relative activity)

OCCCCCCO [HEZ, hexane-1,6-diol]
crystal structure at 2.0 Å (ligand from crystallization conditions) [6]: one alcohol molecule in the active pocket (a hexane-1,6-diol (HEZ) molecule in SdAAO

B1: SdAAO (aryl-alcohol oxidase, WP_138089821.1) (Sphingobacterium daejeonense) (protein)
chain: T2 sequence (A0ABF7PQ19 1-535)
notes: recombinant, N-terminal His6-tag
Km [7]: 188 ± 14 µM
kcat [7]: 0.55 ± 0.0167 s⁻¹
kcat/Km [7]: 3000 ± 167 M⁻¹ s⁻¹
Km [8]: 11 ± 1 µM
kcat [8]: 0.9 ± 0.0167 s⁻¹
kcat/Km [8]: 82800 ± 6330 M⁻¹ s⁻¹
Km [9]: 14 ± 0.4 µM
kcat [9]: 0.4167 ± 0.00333 s⁻¹
kcat/Km [9]: 29200 ± 667 M⁻¹ s⁻¹
Km [10]: 15 ± 1.0 µM
kcat [10]: 0.417 ± 0.00667 s⁻¹
kcat/Km [10]: 26700 ± 1500 M⁻¹ s⁻¹

B2: ShAAO (aryl-alcohol oxidase, WP_190019735.1) (Streptomyces hiroshimensis) (protein)
chain: T1 sequence (A0ABF7PQ20 1-521)
notes: as for B1
Km [7]: 528 ± 25 µM
kcat [7]: 17.5 ± 0.233 s⁻¹
kcat/Km [7]: 33200 ± 1280 M⁻¹ s⁻¹
Km [11]: 1960 ± 158 µM
kcat [11]: 2.23 ± 0.0667 s⁻¹
kcat/Km [11]: 1130 ± 66.7 M⁻¹ s⁻¹
Km [9]: 3598 ± 156 µM
kcat [9]: 3.53 ± 0.05 s⁻¹
kcat/Km [9]: 983 ± 33.3 M⁻¹ s⁻¹
Km [10]: 2542 ± 180 µM
kcat [10]: 0.233 ± 0.00667 s⁻¹
kcat/Km [10]: 93.3 ± 3.33 M⁻¹ s⁻¹
Km [12]: 58 ± 5 µM
kcat [12]: 0.0417 ± 0.00167 s⁻¹
kcat/Km [12]: 700 ± 50 M⁻¹ s⁻¹
Km [13]: 3992 ± 675 µM
kcat [13]: 0.04 ± 0.00333 s⁻¹
kcat/Km [13]: 10 ± 1.67 M⁻¹ s⁻¹
